# Laboratory results: US20130171156
# Numbering of substitutions follows the chain as printed.
# B1: “converted” BMP-1-3 protein (protein)
# chain: AATSRPERVWPDGVIPFVIGGNFTGSQRAVFRQAMRHWEKHTCVTFLERTDEDSYIVFTYRPCGCCSYVGRRGGGPQAISIGKNCDKFGIVVHELGHVVGFWHEHTRPDRDRHVSIVRENIQPGQEYNFLKMEPQEVESLGETYDFDSIMHYARNTFSRGIFLDTIVPKYEVNGVKPPIGQRTRLSKGDIAQARKLYKCPACGETLQDSTGNFSSPEYPNGYSAHMHCVWRISVTPGEKIILNFTSLDLYRSRLCWYDYVEVRDGFWRKAPLRGRFCGSKLPEPIVSTDSRLWVEFRSSSNWVGKGFFAVYEAICGGDVKKDYGHIQSPNYPDDYRPSKVCIWRIQVSEGFHVGLTFQSFEIERHDSCAYDYLEVRDGHSESSTLIGRYCGYEKPDDIKSTSSRLWLKFVSDGSINKAGFAVNFFKEVDECSRPNRGGCEQRCLNTLGSYKCSCDPGYELAPDKRRCEAACGGFLTKLNGSITSPGWPKEYPPNKNCIWQLVAPTQYRISLQFDFFETEGNDVCKYDFVEVRSGLTADSKLHGKFCGSEKPEVITSQYNNMRVEFKSDNTVSKKGFKAHFFSDKDECSKDNGGCQQDCVNTFGSYECQCRSGFVLHDNKHDCKEAGCDHKVTSTSGTITSPNWPDKYPSKKECTWAISSTPGHRVKLTFMEMDIESQPECAYDHLEVFDGRDAKAPVLGRFCGSKKPEPVLATGSRMFLRFYSDNSVQRKGFQASHATECGGQVRADVKTKDLYSHAQFGDNNYPGGVDCEWVIVAEEGYGVELVFQTFEVEEETDCGYDYMELFDGYDSTAPRLGRYCGSGPPEEVYSAGDSVLVKFHSDDTITKKGFHLRYTSTKFQDTLHSRK
# B2: placental BMP-1-3 protein (protein)
# chain: B1 chain with L373Q
# Legend:
# [1] = biological target: calmodulin, P0DP23
# [2] = biological target: type IV collagen
Protein,in vitro processing (enzyme activity) [1],in vitro processing (enzyme activity) [2]
B1,which properties were not exhibited with the “converted” BMP-1-3 protein,which properties were not exhibited with the “converted” BMP-1-3 protein
B2,processed calmodulin and type IV collagen,processed calmodulin and type IV collagen
